US10159726B2, “Peptides, combination of peptides and scaffolds for use in immunotherapeutic treatment of various cancers” (Immatics Biotechnologies GmbH, priority 2015, dated 2018)

Molecular target: HLA-A*02 (Homo sapiens, UniProt P04439, D140Y/D185E/D98H/E176V/E277Q/G131W/G231S/I119V/I121R/I166T/I218V/N151K/N90K/P208A/P217A/Q86G/Q94H/R138H/R169H)
Experiment: MHC binding assay, UV-ligand exchange with beta2m ELISA, HLA-A*02
Details: peptide exchange yield
Excerpt: Candidate peptides for T cell based therapies according to the present invention were further tested for their MHC binding capacity (affinity). The individual peptide-MHC complexes were produced by UV-ligand exchange, where a UV-sensitive peptide is cleaved upon UV-irradiation, and exchanged with the peptide of interest as analyzed. Only peptide candidates that can effectively bind and stabilize the peptide-receptive MHC molecules prevent dissociation of the MHC complexes. To determine the yield of the exchange reaction, an ELISA was performed based on the detection of the light chain (β2m) of stabilized MHC complexes. The assay was performed as generally described in Rodenko et al. (Rodenko et al., 2006).
96 well MAXISorp plates (NUNC) were coated over night with 2 ug/ml streptavidin in PBS at room temperature, washed 4× and blocked for 1 h at 37° C. in 2% BSA containing blocking buffer. […] Peptide-MHC monomers of the UV-exchange reaction were diluted 100 fold in blocking buffer. Samples were incubated for 1 h at 37° C., washed four times, incubated with 2 ug/ml HRP conjugated anti-β2m for 1 h at 37° C., washed again and detected with TMB solution that is stopped with […]. Absorption was measured at 450 nm. Candidate peptides that show a high exchange yield (preferably higher than 50%, most preferred higher than 75%) are generally preferred for a generation and production of antibodies or fragments thereof, and/or T cell receptors or fragments thereof, as they show sufficient avidity to the MHC molecules and prevent dissociation of the MHC complexes.

Row | Substance | MHC class I binding score, Peptide exchange
1 | 1 (PLWGKVFYL; listed as Homo sapiens) [compound 1] | ++ (20%-49% = ++)
2 | 3 (TLLGKQVTL; listed as Homo sapiens) [compound 3] | +++ (50%-75% = +++)
3 | 4 (ELAEIVFKV; listed as Homo sapiens) [compound 4] | +++ (50%-75% = +++)
4 | 5 (SLFGQEVYC; listed as Homo sapiens) [compound 5] | +++ (50%-75% = +++)
5 | 6 (FLDPAQRDL; listed as Homo sapiens) [compound 6] | +++ (50%-75% = +++)
6 | 8 (KLGPFLLNA; listed as Homo sapiens) [compound 8] | +++ (50%-75% = +++)
7 | 10 (KTLDVFNIIL; listed as Homo sapiens) [compound 10] | ++ (20%-49% = ++)
8 | 11 (GVLKVFLENV; listed as Homo sapiens) [compound 11] | ++ (20%-49% = ++)
9 | 12 (GLIYEETRGV; listed as Homo sapiens) [compound 12] | ++ (20%-49% = ++)
10 | 13 (VLRDNIQGI; listed as Homo sapiens) [compound 13] | +++ (50%-75% = +++)
11 | 14 (LLDHLSFINKI; listed as Homo sapiens) [compound 14] | ++ (20%-49% = ++)
12 | 16 (HLYNNEEQV; listed as Homo sapiens) [compound 16] | ++ (20%-49% = ++)
13 | 18 (YVLNEEDLQKV; listed as Homo sapiens) [compound 18] | +++ (50%-75% = +++)
14 | 19 (TLLPTVLTL; listed as Homo sapiens) [compound 19] | +++ (50%-75% = +++)
15 | 20 (ALDGHLYAI; listed as Homo sapiens) [compound 20] | +++ (50%-75% = +++)
16 | 21 (SLYHRVLLY; listed as Homo sapiens) [compound 21] | ++++ (>=75% = ++++)
17 | 22 (MLSDLTLQL; listed as Homo sapiens) [compound 22] | ++++ (>=75% = ++++)
18 | 23 (AQTVVVIKA; listed as Homo sapiens) [compound 23] | + (<20% = +)
19 | 24 (FLWNGEDSAL; listed as Homo sapiens) [compound 24] | +++ (50%-75% = +++)
20 | 25 (IQADDFRTL; listed as Homo sapiens) [compound 25] | ++ (20%-49% = ++)
21 | 26 (KVDGVVIQL; listed as Homo sapiens) [compound 26] | +++ (50%-75% = +++)
22 | 27 (KVFGDLDQV; listed as Homo sapiens) [compound 27] | +++ (50%-75% = +++)
23 | 28 (TLYSMDLMKV; listed as Homo sapiens) [compound 28] | +++ (50%-75% = +++)

Row | Substance | MHC class I binding score, Peptide exchange
24 | 29 (TLCNKTFTA; listed as Homo sapiens) [compound 29] | +++ (50%-75% = +++)
25 | 31 (ALSDETKNNWEV; listed as Homo sapiens) [compound 31] | ++++ (>=75% = ++++)
26 | 32 (ILADEAFFSV; listed as Homo sapiens) [compound 32] | +++ (50%-75% = +++)
27 | 33 (LLLPLLPPLSPSLG; listed as Homo sapiens) [compound 33] | +++ (50%-75% = +++)
28 | 35 (YVLPKLYVKL; listed as Homo sapiens) [compound 35] | ++ (20%-49% = ++)
29 | 36 (KLYGIEIEV; listed as Homo sapiens) [compound 36] | ++++ (>=75% = ++++)
30 | 37 (ALINDILGELVKL; listed as Homo sapiens) [compound 37] | +++ (50%-75% = +++)
31 | 38 (KMQEDLVTL; listed as Homo sapiens) [compound 38] | +++ (50%-75% = +++)
32 | 39 (ALMAVVSGL; listed as Homo sapiens) [compound 39] | +++ (50%-75% = +++)
33 | 40 (SLLALPQDLQA; listed as Homo sapiens) [compound 40] | +++ (50%-75% = +++)
34 | 41 (FVLPLVVTL; listed as Homo sapiens) [compound 41] | +++ (50%-75% = +++)
35 | 42 (VLSPFILTL; listed as Homo sapiens) [compound 42] | +++ (50%-75% = +++)
36 | 44 (GLLWQIIKV; listed as Homo sapiens) [compound 44] | ++ (20%-49% = ++)
37 | 45 (VLGPTPELV; listed as Homo sapiens) [compound 45] | +++ (50%-75% = +++)
38 | 46 (SLAKHGIVAL; listed as Homo sapiens) [compound 46] | +++ (50%-75% = +++)
39 | 47 (GLYQAQVNL; listed as Homo sapiens) [compound 47] | +++ (50%-75% = +++)
40 | 48 (TLDHKPVTV; listed as Homo sapiens) [compound 48] | ++ (20%-49% = ++)
41 | 49 (LLDESKLTL; listed as Homo sapiens) [compound 49] | +++ (50%-75% = +++)
42 | 50 (EYALLYHTL; listed as Homo sapiens) [compound 50] | ++ (20%-49% = ++)
43 | 51 (LLLDGDFTL; listed as Homo sapiens) [compound 51] | +++ (50%-75% = +++)
44 | 52 (ELLSSIFFL; listed as Homo sapiens) [compound 52] | +++ (50%-75% = +++)
45 | 53 (SLLSHVIVA; listed as Homo sapiens) [compound 53] | +++ (50%-75% = +++)
46 | 54 (FINPKGNWLL; listed as Homo sapiens) [compound 54] | +++ (50%-75% = +++)

Row | Substance | MHC class I binding score, Peptide exchange
47 | 55 (IASAIVNEL; listed as Homo sapiens) [compound 55] | ++ (20%-49% = ++)
48 | 56 (KILDLTRVL; listed as Homo sapiens) [compound 56] | ++ (20%-49% = ++)
49 | 57 (VLISSTVRL; listed as Homo sapiens) [compound 57] | ++ (20%-49% = ++)
50 | 58 (ALDDSLTSL; listed as Homo sapiens) [compound 58] | ++ (20%-49% = ++)
51 | 59 (ALTKILAEL; listed as Homo sapiens) [compound 59] | +++ (50%-75% = +++)
52 | 60 (FLIDTSASM; listed as Homo sapiens) [compound 60] | ++ (20%-49% = ++)
53 | 61 (HLPDFVKQL; listed as Homo sapiens) [compound 61] | ++ (20%-49% = ++)
54 | 62 (SLFNQEVQI; listed as Homo sapiens) [compound 62] | +++ (50%-75% = +++)
55 | 63 (TLSSERDFAL; listed as Homo sapiens) [compound 63] | + (<20% = +)
56 | 64 (GLSSSSYEL; listed as Homo sapiens) [compound 64] | ++ (20%-49% = ++)
57 | 65 (KLDGICWQV; listed as Homo sapiens) [compound 65] | +++ (50%-75% = +++)
58 | 66 (FITDFYTTV; listed as Homo sapiens) [compound 66] | +++ (50%-75% = +++)
59 | 67 (GVIETVTSL; listed as Homo sapiens) [compound 67] | ++ (20%-49% = ++)
60 | 69 (GIYDGILHSI; listed as Homo sapiens) [compound 69] | +++ (50%-75% = +++)
61 | 70 (GLFSQHFNL; listed as Homo sapiens) [compound 70] | +++ (50%-75% = +++)
62 | 71 (GLITVDIAL; listed as Homo sapiens) [compound 71] | +++ (50%-75% = +++)
63 | 72 (GMIGFQVLL; listed as Homo sapiens) [compound 72] | +++ (50%-75% = +++)
64 | 74 (ILDETLENV; listed as Homo sapiens) [compound 74] | ++ (20%-49% = ++)
65 | 75 (ILDNVKNLL; listed as Homo sapiens) [compound 75] | +++ (50%-75% = +++)
66 | 76 (ILLDESNFNHFL; listed as Homo sapiens) [compound 76] | +++ (50%-75% = +++)
67 | 77 (IVLSTIASV; listed as Homo sapiens) [compound 77] | +++ (50%-75% = +++)
68 | 78 (LLWGHPRVA; listed as Homo sapiens) [compound 78] | +++ (50%-75% = +++)
